For this assay, the target named is Her2 extracellular domain antigen (ACRO Biosystems) (UniProt P04626). Description: SPR (Carterra LSA), Fab captured from lysate on Fab Kappa capture reagent, Her2 ECD in solution.

pKd: −log10 of the molar value.

The term pKd denotes −log10 of the Kd, conventionally taken in molar units.

five standards of trastuzumab Fab showed a pKd of 7.00.
